Test results: publication PMC314469, “Protein Interaction Networks by Proteome Peptide Scanning” (PLoS Biology, 2004)

Biological target: Sho1 SH3 (SHO1_YEAST), P40073
Assay: SPOT array

Sequence of Sho1 SH3 (SHO1_YEAST), P40073 (P40073 295-366): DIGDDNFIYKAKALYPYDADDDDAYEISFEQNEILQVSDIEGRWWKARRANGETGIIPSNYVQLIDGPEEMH

Row | Binder | normalised SPOT signal, Boehringer light units (BLU); mean over the file's lines of this peptide
1 | YMQPIIPGKTESFE [151-164 similar to ubiquitin activating enzyme (E1)] | 165
2 | YPSPAQPPKSPLLN [448-461 " involved in bud formation, has SH3 domain"] | 128
3 | YQYPQTPSKVDISI [243-256 Product of gene unknown] | 196
4 | YSLPMHPGRWWVHT [222-235 " 2,3-oxidosqualene-lanosterol cyclase"] | 453
5 | YSNPQTPLRSLAGL [1404-1417 Type 1 membrane protein with EF hand motif] | 217
6 | YTLPLLPGKGGFRI [228-241 Hypothetical ORF] | 509
7 | AAQPPLPSRNVASG [446-459 Actin binding protein] | 81.6
8 | AAWPLDPARERWTR [269-282 Hypothetical ORF] | 137
9 | ASLPVGPRKNGMNV [26-39 Hypothetical ORF] | 215
10 | AFVPTNPWRSSMSL [315-328 invertase (sucrose hydrolyzing enzyme)] | 620
11 | AGSPIRPYKQRYLL [526-539 heat shock transcription factor] | 86.2
12 | AIEPGVPSRYSDET [91-104 Hypothetical ORF] | 125
13 | AKQPKEPKKRTTRR [7-20 11-kDa nonhistone chromosomal protein] | 103
14 | AKSPLLPFKLLSDR [330-343 Hypothetical ORF] | 160
15 | ALKPKTPSKAPRKR [65-78 origin recognition complex subunit 2] | 830
16 | ALVPFAPFKLLKDR [340-353 Triacetylfusarinine C transporter] | 129
17 | AMPPTLPHRDWKDY [84-97 component of peroxisomal import machinery] | 321
18 | APAPLDPFKTGGNN [849-862 " contains 3 SH3 domains, interacts with Bee1p"] | 681
19 | APLPPQPRKHDKTP [587-600 Protein Kinase C] | 152
20 | APTPPAPSRSEKLH [727-740 Hypothetical ORF] | 258
21 | ARDPILPYRLVKDR [345-358 Product of gene unknown] | 118

Row | Binder | normalised SPOT signal, Boehringer light units (BLU); mean over the file's lines of this peptide
22 | ATRPSSPMRHKSIS [585-598 protein kinase domain] | 401
23 | ATTPAIPTKSDEAE | 169
24 | ATVPSAPYRKQIIS [11-24 nuclear pore protein] | 122
25 | AVDPENPKKLASKF [384-397 Hypothetical ORF] | 83.2
26 | SGFPLLPSKRGVTA [165-178 Hypothetical ORF] | 644
27 | SILPAFPSKSSNEQ | 73.6
28 | SQRPGSPGRYKLVR [174-187 gamma subunit of translational initiation factor eIF-2] | 178
29 | SREPEVPQRLLTLI [250-263 Hypothetical ORF] | 105
30 | DDTPSIPSKISSKS [1313-1326 component of the mitotic spindle] | 207
31 | DELPSPPLRMVHID [237-250 Hypothetical ORF] | 224
32 | DERPFRPKRTSRSA [149-162 Hypothetical ORF] | 183
33 | DESPIDPSKAPKVP [350-363 Hypothetical ORF] | 96.8
34 | DFTPVEPSKMREYI [629-642 MCM3 protein homolog (S. cerevisiae)] | 91
35 | DGRPHSPLRARSAT [51-64 Involved in protecting the cell against bleomycin damage] | 37.1
36 | DHKPENPIRTFKDL [90-103 uridine permease] | 168
37 | DLPPKFPEKPVHLV [186-199 Hypothetical ORF] | 65.8
38 | DLQPLEPKKAAAST [805-818 " contains 3 SH3 domains, interacts with Bee1p"] | 220
39 | DPLPYSPLKLYDQK [382-395 Transcription factor (fork head domain)] | 144
40 | DQAPSLPPKPNTQL [158-171 homologous to mouse and human Tsg101 tumor susceptibility genes] | 176
41 | DRPPDVPRKIIVGR [301-314 ubiquitin carboxyl-terminal hydrolase] | 477
42 | DSGPQRPKRTRAKG | 202
